Laboratory results: patent publication US20210355194A1
Like-named read-outs stand apart in the source and are kept apart here.

B1: variant 6-81 (Fc fusion)
VHH: EVQLVESGGGLVQPGGSLRLSCAASGFIGNYHAMGWFRQAPGKEREFVAAVTWSGGTTNYADSVKGRFTISADNSKNTAYLQMNSLKPEDTAVYYCAREGYYYDSSGYPYYFDYWGQGTLVTVSS
B2: variant 6-3 (Fc fusion)
VHH: EVQLVESGGGLVQPGGSLRLSCAASGFTFSPSWMGWFRQAPGKEREFVATINEYGGRNYADSVKGRFTISADNSKNTAYLQMNSLKPEDTAVYYCARVDRDFDYWGQGTLVTVSS
B3: variant 5-50 (Fc fusion)
VHH: EVQLVESGGGLVQPGGSLRLSCAASGFSLDYYGMGWFRQAPGKEREFVAAITSGGTPHYADSVKGRFTISADNSKNTAYLQMNSLKPEDTAVYYCASAYNPGIGYDWGQGTLVTVSS

Assays:
Conditions in all cases: remark: other sources report otherwise
[1] = target: SARS-COV2-S1 RBD (mouse IgG2Fc tag) (SARS-CoV-2), P0DTC2
[2] = target: T1, CV S-protein construct 6 trimer TP31001F (SARS-CoV-2), P0DTC2; test: SPR
[3] = target: T1, CV S-protein construct 6 trimer …; test: SPR; remark: listed apart in the source
[4] = target: SARS-COV2-S1 RBD (mouse IgG2Fc tag) (SARS-CoV-2), P0DTC2; test: FACS, blocks S1 RBD-mFc binding to ACE2 on Vero E6
[5] = target: SARS-COV2-S1 RBD (mouse IgG2Fc tag) (SARS-CoV-2), P0DTC2; test: column not explained; likely FACS, S1 RBD on Vero E6
[6] = target: SARS-COV2-S1 RBD (mouse IgG2Fc tag) (SARS-CoV-2), P0DTC2; test: FACS, S1 RBD-mFc on Vero E6 (ACE2)
[7] = target: SARS-COV2-S1 RBD (mouse IgG2Fc tag) (SARS-CoV-2), P0DTC2; remark: listed apart in the source

Binder	IC50 [1] [nM]	Kd [2] [nM]	Kd [3] [nM]	IC50 [4] [nM]	MFI Fold Decrease [5] [fold]	Competition Factor [6]	IC50 [7] [nM]
B1	1.38	3.9	3.9	–	–	–	–
B2	–	–	–	0.74	9.51	9.51	–
B3	–	–	3.8	–	–	–	1.61
